# ± gives the uncertainty stated by the source.
# Test: amyloid nucleation score (Sup35N fusion, yeast selection) (log enrichment); library NNK2; higher = more nucleation; inactive = no reads after selection
# Procedure, shortened: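 On medium lacking adenine and uracil, psi-negative yeast expressing peptides of 20 random codons fused to Sup35N were grown 7 days at 30°C after a 24-hour induction with 100 μM copper sulfate. Illumina sequencing of input and output plasmid inserts gave the reads, and sequences under 100 input reads were excluded. The nucleation score is the DiMSum log enrichment of output over input reads, centred on the mode score of non-aggregating sequences.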
row,Substance,amyloid nucleation score
1,KSIGTAGFDN,-0.846 ± 0.42
2,SCKNMGHVWFIVDVHHNRRL,inactive
3,YSGVSTTSFISDKPYRSRRR,-1.95 ± 1
4,GFRTFRRGREWSLE,0.714 ± 0.34
5,SGCLQRFSQSLGRTCFIWLG,-1.29 ± 0.75
6,FCKDLMFC,0.378 ± 0.36
7,TMLYKWKVGNTFSHVLCLLL,-0.14 ± 1
8,DLTCRTSLSRGWKVLASSNG,0.413 ± 0.31
9,LRRVFQISERRNKLWLYEEC,0.6 ± 0.74
10,SLMVQWSTILAHIRHFMTA,0.073 ± 0.63
11,LIGCLEQG,-0.156 ± 0.56
12,SCGMFESPAVYGYSARLSRL,inactive
13,FTFVWNVVQFGTFYGSHLRG,4.5 ± 0.071
14,TKEHYYR,0.048 ± 0.5
15,DPVSYILDWASRGNS,0.523 ± 0.64
16,MFFSFNVFDFGPL,4.698 ± 0.036
17,YNSLVRMRTRYIGR,0.025 ± 0.46
18,LSAGPALHSYLSGNVFSIEL,2.69 ± 0.069
19,SELHGCYFHVHRRHRYRGYY,-0.015 ± 0.61
20,RRVVVTWMSNIPRLLSRGVN,0.171 ± 0.23
21,TMKLLQRYYLSFFPI,-1.72 ± 0.64
22,GPEWSSLGSKVRLHWINSM,0.626 ± 0.8

row,Substance,amyloid nucleation score
1,PFGGSFVSAYSTKRLCHGSH,-1.2 ± 0.48
2,YRLGLCGTFHINCVLINRDG,5.2 ± 0.056
3,AGVWHSSLFITIQGVLNFGY,6.017 ± 0.02
4,IISSYSATEARTMFIKLHCL,-0.606 ± 0.54
5,LLTGQALFGRASY,0.122 ± 0.37
6,FAIMHFY,-0.711 ± 1.1
7,DRLVSLAYLMWFGKMGWDKG,0.05 ± 0.51
8,SQLFTVLSKS,-0.062 ± 0.35
9,VAWTRCSLHWLQFVLCLSGE,5.92 ± 0.041
10,KEGFPMIIDYEIGFTDLSGG,-1.43 ± 0.75
11,YRAMESNRKRTPVKPVRCVV,2.85 ± 0.11
12,RLECRLNSEPFYKDWTSSDS,0.674 ± 0.39
13,AVRLSEV,0.421 ± 0.38
14,SYLCDPLRETTYSPKYLRST,0.667 ± 0.38
15,WLEDAS,-0.557 ± 1.1
16,WLFSMRGGDAPKSKRRSIHH,4.96 ± 0.1
17,EQMGCTGLVFNVCEGFEDVM,3.44 ± 0.059
18,SRHGMSLASR,-0.024 ± 0.46
19,MRSNWYGNVCVVTSNCDGLG,0.837 ± 0.48
20,YSKTFTRRSWAHYTCHSVRL,0.12 ± 0.41
21,MHCSESSYYFAILRARHVLL,1.43 ± 0.12
22,MISRSFPQSVFFLTDLWS,-0.667 ± 0.31

row,Substance,amyloid nucleation score
1,MSGYVVFDMALKTRELMPAS,1.87 ± 0.48
2,SIFITATCNVH,inactive
3,MMARFCVAFQHVIESNLGGS,-1.4 ± 0.44
4,VWSSMSFTSLFVIISLSNYS,2.88 ± 0.13
5,ACQAFTCW,0.967 ± 0.26
6,GYVFYNFFYSAQSRLSSLSN,0.52 ± 0.15
7,GKFQMS,-0.244 ± 0.56
8,RFTNSESRNYRA,4.24 ± 0.069
9,CNGYRKVHCLMTMSRWTYGR,1.08 ± 0.1
10,VAVCMWTTNVCVI,7.804 ± 0.042
11,VYCHRLNIILIGRVFCSEDI,0.062 ± 0.55
12,LITFLCFYHLKHYGLHTVGW,-1.03 ± 0.36
13,GKIKIEGNDLIGGLQGRLRP,inactive
14,TYYSLSLVAIMGAR,1.82 ± 0.2
15,SQWDKTVT,-0.986 ± 0.55
16,YHHIV,inactive
17,LCTRHACNIYGPLPNAHLVR,0.643 ± 0.31
18,TRWSANYPRCWPTMRRCLSL,0.858 ± 0.51
19,ALLYYTAVVDKNYTSDLSHD,-0.899 ± 0.37
20,FLARLI,0.45 ± 0.74
21,VNSSFLLGFCLRIMNHV,inactive
22,WRRPFM,0.163 ± 0.3

row,Substance,amyloid nucleation score
1,YFKFAGV,4.16 ± 0.095
2,NIFFVRCYFNVLYNGALCHS,7.025 ± 0.043
3,FWSCVLSFVYN,6.1 ± 0.067
4,GGSRTRSCQDRAHCSVGGM,0.598 ± 0.39
5,ITVYLRTRFLGFGFEYE,-0.536 ± 1
6,VPFGNESWLYTR,-1.06 ± 0.64
7,VHLALTRCM,0.844 ± 0.32
8,YFSQQSEGSALCVLKHWVKS,0.253 ± 0.42
9,LVLYGFYVTSDLRWSLSWKM,0.766 ± 0.2
10,GIWITGAWTTSLLCIRTLLG,0.631 ± 0.43
11,LIYVDFHGIQVVCLYLCVHC,inactive
12,SLSERLVILMTWCTFVVSAQ,1.17 ± 0.29
13,NRFVYLVI,-0.321 ± 0.36
14,LSMTEWVFSKGNRALAVYYM,-1.39 ± 0.61
15,VLPRYN,0.471 ± 0.62
16,VKWISMCSILSYRRG,-1.08 ± 0.78
17,SMYCTPFILCYNPHSNRVAH,9.811 ± 0.037
18,RCLGLCFICEYDFGVMRYSA,-0.633 ± 0.48
19,WVCNFVMIRLGIFEF,1.78 ± 0.14
20,WFFTSS,-0.526 ± 0.76
21,LTEVIVFYIRYMQARDRLIR,inactive
